Test results from US20040071712A1.

Target: human mpl receptor (c-Mpl, the TPO receptor) (human) (UniProt P40238)
Assay: cell-based or functional assay

IEGPTLRQWLAARAGIEGPTLRQWLAARA [TMP-(G)n-TMP, n = 1 (peptide 2)]
increase in potency as compared to the monomer (cell proliferation assay): > 1000 fold

IEGPTLRQWLAARAGGGGGGGGGGGGGGIEGPTLRQWLAARA [TMP-(G)n-TMP, n = 14 (peptide 12)]
increase in potency as compared to the monomer (cell proliferation assay): > 1000 fold

IEGPTLRQWLAARAGGGGGGGGGIEGPTLRQWLAARA [TMP-(G)n-TMP, n = 9 (peptide 10)]
increase in potency as compared to the monomer (cell proliferation assay): > 1000 fold

IEGPTLRQWLAARAGGGGGGGGIEGPTLRQWLAARA [TMP-(G)n-TMP, n = 8 (peptide 9)]
increase in potency as compared to the monomer (cell proliferation assay): > 1000 fold

IEGPTLRQWLAARAGGGIEGPTLRQWLAARA [TMP-(G)n-TMP, n = 3 (peptide 4)]
increase in potency as compared to the monomer (cell proliferation assay): > 1000 fold

IEGPTLRQWLAARAGGIEGPTLRQWLAARA [TMP-(G)n-TMP, n = 2 (peptide 3)]
increase in potency as compared to the monomer (cell proliferation assay): > 1000 fold

IEGPTLRQWLAARAIEGPTLRQWLAARA [TMP-(G)n-TMP, n = 0 (peptide 1)]
increase in potency as compared to the monomer (cell proliferation assay): > 1000 fold

IEGPTLRQWLAARAGGGGGGIEGPTLRQWLAARA [TMP-(G)n-TMP, n = 6 (peptide 7)]
increase in potency as compared to the monomer (cell proliferation assay): > 1000 fold

IEGPTLRQWLAARAGGGGIEGPTLRQWLAARA [TMP-(G)n-TMP, n = 4 (peptide 5)]
increase in potency as compared to the monomer (cell proliferation assay): > 1000 fold

IEGPTLRQWLAARAGPNGIEGPTLRQWLAARA [TMP-GPNG-TMP (peptide 13)]
loss of activity against the equivalent GGGG-linked analog (cell proliferation assay): > 10 fold | potency as compared to the monomer (cell proliferation assay): 100 fold

IEGPTLRQWLAARAGGGGGIEGPTLRQWLAARA [TMP-(G)n-TMP, n = 5 (peptide 6)]
increase in potency as compared to the monomer (cell proliferation assay): > 1000 fold

IEGPTLRQWLAARAGGGGGGGIEGPTLRQWLAARA [TMP-(G)n-TMP, n = 7 (peptide 8)]
increase in potency as compared to the monomer (cell proliferation assay): > 1000 fold

IEGPTLRQWLAARAGGGGGGGGGGIEGPTLRQWLAARA [TMP-(G)n-TMP, n = 10 (peptide 11)]
increase in potency as compared to the monomer (cell proliferation assay): > 1000 fold
